Here are results for 1 substance from patent publication US20100285451A1.

In this assay the target is Somatostatin 2 receptor-eYFP-α fusion (E. coli). Put plainly: cell-based or functional assay.

As to “somatostatin-14 (from UniProt P61278 103-116) (peptide)”, the EC50, arrestin assay (β-galactosidase complementation of β-arrestin-ω + GPCR-eYFP-α) was determined as 3 nM; the EC50, internalization assay (β-galactosidase complementation of FYVE-ω + GPCR-eYFP-α) came to 7 nM; the fold induction, internalization assay was found to be 3 fold.
